Publication PMC11412978

Molecular target: USP22 (ubiquitin-specific protease 22) (UniProt Q9UPT9)
Assay: co-IP of myc-MYH9 and Flag-USP22
Conditions: reference: wild-type MYH9; sites S1943

For “MYH9 (non-muscle myosin heavy chain 9) (from UniProt P35579) MYH9-S1943A”, the “binding against the reference” value was “lost”.
